Results published in publication PMC4284226.

Target: TRPM8-mTurquoise2 (human) (UniProt Q7Z2W7)
Assay: FRET or BRET

Chain of UniProt Q7Z2W7 (Q7Z2W7 2-1104): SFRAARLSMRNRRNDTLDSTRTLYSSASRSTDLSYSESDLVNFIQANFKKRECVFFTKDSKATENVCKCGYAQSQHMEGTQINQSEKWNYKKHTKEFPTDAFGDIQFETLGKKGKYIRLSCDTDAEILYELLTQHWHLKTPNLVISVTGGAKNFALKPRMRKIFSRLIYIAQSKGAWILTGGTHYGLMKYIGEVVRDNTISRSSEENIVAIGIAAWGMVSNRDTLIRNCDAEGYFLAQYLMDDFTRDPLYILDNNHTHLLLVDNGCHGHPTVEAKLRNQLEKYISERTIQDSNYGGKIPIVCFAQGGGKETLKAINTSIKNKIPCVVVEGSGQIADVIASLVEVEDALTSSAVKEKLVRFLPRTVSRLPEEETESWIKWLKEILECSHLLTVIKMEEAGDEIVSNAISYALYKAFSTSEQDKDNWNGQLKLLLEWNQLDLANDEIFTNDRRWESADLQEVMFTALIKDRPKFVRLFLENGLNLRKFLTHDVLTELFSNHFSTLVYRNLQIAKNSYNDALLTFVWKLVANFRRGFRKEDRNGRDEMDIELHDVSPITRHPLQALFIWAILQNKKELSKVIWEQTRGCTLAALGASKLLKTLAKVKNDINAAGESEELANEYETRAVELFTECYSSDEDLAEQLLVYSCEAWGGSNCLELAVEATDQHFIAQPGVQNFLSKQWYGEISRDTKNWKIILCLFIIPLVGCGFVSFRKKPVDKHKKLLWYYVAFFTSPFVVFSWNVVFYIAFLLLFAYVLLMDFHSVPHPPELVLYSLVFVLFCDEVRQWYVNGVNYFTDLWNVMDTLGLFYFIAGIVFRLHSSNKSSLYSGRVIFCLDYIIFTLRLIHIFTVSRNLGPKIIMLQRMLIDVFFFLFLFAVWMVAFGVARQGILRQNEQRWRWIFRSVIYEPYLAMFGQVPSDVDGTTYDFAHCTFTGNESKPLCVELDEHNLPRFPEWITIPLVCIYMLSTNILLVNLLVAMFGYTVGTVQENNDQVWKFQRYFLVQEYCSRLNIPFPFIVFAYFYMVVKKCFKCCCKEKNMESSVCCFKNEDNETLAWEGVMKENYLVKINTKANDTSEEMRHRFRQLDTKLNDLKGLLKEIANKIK

Q: free SYFP2 protein was tested. Which E FRET did it give?
A: < 1%
